Paper PMC10311840, “Purification and characterization of inorganic pyrophosphatase for in vitro RNA transcription” (Biochemistry and cell biology = Biochimie et biologie …, 2022)
“And” between values parts separate entries of the source, which are not always exact repeats. Equal entries are not always repeated.

What was measured:
[1] = biological target: the molecule itself; assay: SEC-SAXS; HPLC-SAXS at Diamond B21; 50 uL of 450 umol/L iPPase on Superdex 200 Increase 3.2/300 GL; dimer and tetramer peaks analysed, hexamer peak not usable; self-association
[2] = biological target: the molecule itself; assay: SEC-MALS; SEC-MALS-DLS; Superdex 200 Increase 10/300 GL; 355 umol/L affinity-purified iPPase injected in 500 uL; 25 C; 80 mmol/L Tris-HCl pH 7.5, 30 mmol/L MgCl2, 4 mmol/L spermidine, 20 mmol/L NaCl, 4 mmol/L DTT; self-association, dimer, tetramer and hexamer peaks

B1: yeast inorganic pyrophosphatase (enzyme)
chain: TYTTRQIGAKNTLEYKVYIEKDGKPVSAFHDIPLYADKENNIFNMVVEIPRWTNAKLEITKEETLNPIIQDTKKGKLRFVRNCFPHHGYIHNYGAFPQTWEDPNVSHPETKAVGDNDPIDVLEIGETIAYTGQVKQVKALGIMALLDEGETDWKVIAIDINDPLAPKLNDIEDVEKYFPGLLRATNEWFRIYKIPDGKPENQFAFSGEAKNKKYALDIIKETHDSWKQLIAGKSSDSKGIDLTNVTLPDTPTYSKAASDAIPPASPKADAPIDKSIDKWFFISGSV
notes: inorganic pyrophosphatase, product of the yeast gene IPP1, family 1 iPPase (EC 3.6.1.1); expressed from plasmid pET29b-IPP1-His; no cleavage is described; also called iPPase; yeast iPPase
stoichiometry N [1]: 4 | stoichiometry N [2]: 2 and 6
